Laboratory results from the supplement of paper PMC10567573.
± gives the standard deviation.

Test: protein stability index of a GFP-peptide fusion (GPS, HEK-293T) (PSI 1-6); higher = more stable
Settings: c terminus: a fixed tail appended
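Note: 24-mer peptide tiles fused after GFP, lentivirally expressed, FACS-sorted into six equal bins by GFP/DsRed ratio, decoded by Illumina sequencing, PSI is the read-weighted mean bin number.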

Sequence	protein stability index (treatment: DMSO)	protein stability index (treatment: MLN4924 1 uM, 8 h)
EANSSNSQKNEKALTNIQNCMAEK [C8orf76]	4.96 ± 0.38	4.58 ± 0.37
EARPIETYQVHDYLRSKLCSLYEN [PPP2R2C]	2.7 ± 0.19	3.02 ± 0.33
EAVFGKYGRIVEVLLMKDRETNKS [RBMX]	2.53 ± 0.29	2.85 ± 0.52
EDDALSDKHGCPAYVSPEILNTTG [TRIB1]	4.97 ± 0.24	4.95 ± 0.072
EDGKTCRRKDVCQAIDHGCEHICV [MATN2]	3.82 ± 0.2	4.24 ± 0.28
EDKENYKKFYEAFSKNLKLGIHED [HSP90AB1]	4.08 ± 0.34	4.22 ± 0.25
EDMLLPLAWRIVNDTYRTDLCLLY [CCNC]	2.76 ± 0.57	2.59 ± 0.38
EDSLGCLTADTKEVTASQEARGLR [IRX6]	5.34 ± 0.25	5.3 ± 0.27
EDSRTSKESMSEADRAQKMDGESE [EHMT1]	5.5 ± 0.33	5.64 ± 0.23
EDSVSRLEKEIEVLERGDSAPATA [PALM]	5.49 ± 0.23	5.47 ± 0.18
EECTDLQKEGEFSTCFTELQRDFL [OAS1]	4.5 ± 0.32	4.52 ± 0.47
EEEEEEEDEDDDSADMDESDEDDE [FBXO3]	5.37 ± 0.12	5.38 ± 0.15
EEIKKLTTDPDLILEVLRSSPMVQ [LARP4]	2.39 ± 0.7	2.64 ± 0.64
EEKSKQFLDLMETIDKQREEMAKS [LRRC45]	5.28 ± 0.25	5.3 ± 0.16
EEKSVKNTSIRVADFGSATFDHEH [CLK3]	5.1 ± 0.11	5.07 ± 0.21
EENIMKSNIDKKFSAHYDAVEAEL [FAM50A]	4.98 ± 0.19	5.08 ± 0.083
EGAFGEHGSQGTYSNTKENGINGE [MAP2]	5.19 ± 0.31	5.25 ± 0.17
EGAQLGENKPSTCSFSIERILGLD [HESX1]	2.92 ± 0.18	3.11 ± 0.1
EGHSPGNLPKFCHECGTKYPVEWA [ZC2HC1A]	2.91 ± 0.25	2.97 ± 0.28
EHLEILQKEDVKPYQVNGVNPAYP [ETS1]	4.1 ± 0.11	4.05 ± 0.28
EHPEALSCLLLQLRREKPSEEMVK [INTS3]	3.38 ± 0.43	3.57 ± 0.26
EIARREKELEARVRKPAEAERYKL [FLOT1]	4.4 ± 0.1	4.45 ± 0.22

Sequence	protein stability index (treatment: DMSO)	protein stability index (treatment: MLN4924 1 uM, 8 h)
EIIELRRTVNALEIELQAQHNLRY [KRT33B]	2.21 ± 0.22	2.08 ± 0.14
EISAYRKLLQGEEERLKLSPSPSS [LMNB1]	3.78 ± 0.37	4.16 ± 0.61
EKLCIYTDNSIKPQELLEWELVVL [CCND2]	2.57 ± 0.58	2.62 ± 0.6
EKPYGCIDCGKAFSQKSCLVAHQR [ZNF649]	2.81 ± 0.07	2.99 ± 0.28
EKWAEGGGHSRERADEPQWSLYPS [CHGB]	4.28 ± 0.22	4.24 ± 0.064
EKYGRAHPVFYQGTYSQALNDAKR [FAF2]	3.28 ± 0.15	3.47 ± 0.37
ELDDPGQPVSLRRRKREVLVEDMV [ZNF24]	4.66 ± 0.12	4.68 ± 0.17
ELEPLKGNFDWEAIFDAGTLGGEL [FOXJ1]	4.2 ± 0.39	4.05 ± 0.46
ELGSESQGASESQAPGEENLLGEA [HDAC6]	5.63 ± 0.29	5.54 ± 0.12
ELHQVAERVEALGQFVMKTRRTLK [GNB5]	2.87 ± 0.12	3.1 ± 0.3
ELIRVEVEILDLNDNSPSFATPER [PCDHGC5]	2.42 ± 0.26	2.43 ± 0.25
ELTLSKTDLEMQIESLNEELAYMK [KRT13]	3.66 ± 0.15	3.66 ± 0.35
ELVPKQPQKRKPQEQLLECNKLCG [SLC2A12]	3.44 ± 0.45	4.18 ± 0.18
ELYVFGGVRSREDAQGSEMVTCKS [GAN]	4.08 ± 0.38	4.15 ± 0.34
ENLAHHLEIDSGVITLDPQTASRS [TRIM15]	4.96 ± 0.11	4.97 ± 0.27
ENPETDLHVNPKKQTIGNSCKACG [EIF5]	4.44 ± 0.39	4.66 ± 1.2
ENRALQQLLEQKQAYWAQAEDTAA [CBY2]	4.3 ± 0.21	4.4 ± 0.21
ENSHTNTEVLRNMGFAAKAMKSVH [CHMP4C]	3.61 ± 0.28	3.77 ± 0.23
ENTLLNSQMVSTDNSLSSQNYISQ [MIA2]	4.05 ± 0.23	4.03 ± 0.17
EPAGGGRSREARSRLLLLEQELKT [SMAD6]	4.63 ± 0.44	4.87 ± 0.088
EPEPAEVTSTSQSPHSPDSSQSSL [DDIT3]	5.48 ± 0.15	5.58 ± 0.13
EPGPRPALQPSPSIRLPLDAPLPG [TBC1D10A]	4.97 ± 0.28	5.06 ± 0.26

Sequence	protein stability index (treatment: DMSO)	protein stability index (treatment: MLN4924 1 uM, 8 h)
EPKLHTPMYFFLGNLSVLDVGCIS [OR3A1]	2.7 ± 0.83	2.95 ± 0.71
EPNTFSPANVDASVMYRKWKESKG [CDC34]	4.69 ± 0.15	4.59 ± 0.17
EQATSLAILRVIRLVRVFRIFKLS [KCNA1]	2.42 ± 0.63	2.7 ± 0.26
EQHGKKVPTVSRPYSFIEFDTFIQ [SEC22B]	2.75 ± 0.28	2.95 ± 0.26
EQLLVLVEWAKYIPAFCELPLDDQ [HNF4A]	2.57 ± 0.78	2.46 ± 0.42
ERAIRTQPKQLIVDDLKGSLKEDL [SPRY1]	4.81 ± 0.28	4.85 ± 0.18
ERLVAQFPSSGRFWKLYIEAEVTI [CSTF3]	2.93 ± 0.61	2.71 ± 0.38
ERMAEEGGGGQGDGGSSLASGSTQ [FBXO28]	5.53 ± 0.35	5.35 ± 0.33
ESAFKLSTGTSRWPSAKSAGWTLA [SCNN1D]	2.46 ± 0.21	3.03 ± 0.17
ESFIKAIGVGLGFELQRLEFDLSP [AASDHPPT]	2.89 ± 0.77	2.84 ± 0.64
ESHSCPQQVPMPPGQEAQRVVCGI [NEK8]	4.15 ± 0.28	4.15 ± 0.12
ETAAGKGKGEARARLKRSQSFGVA [SMTNL2]	4.39 ± 0.18	4.71 ± 0.12
ETHRAPDLVQWTRHMEAVKAQLLE [SOAT2]	4.81 ± 0.21	4.53 ± 0.29
ETLSITNCRLSEGDVMHLSQSPSV [PRAME]	3.2 ± 0.66	3.22 ± 0.77
ETYLQNHFAEEERSKYDYLMILRR [TENT5C]	2.84 ± 0.1	3.13 ± 0.23
EVHRLIEGKAPIISGVTKAISSPT [TPPP]	3.42 ± 0.18	3.84 ± 0.28
EVPTAAGALTPTPAPTTTTATREE [CLPTM1]	5.42 ± 0.27	5.44 ± 0.39
EVRKLTQRLEEMTQRMEALENRLR [MATN2]	2.57 ± 0.39	2.91 ± 0.4
EVSSPPDTTEEVDHKPKLCRLAKG [PDZK1]	5.11 ± 0.45	–
EYVEKETQEKKRLSRTNEELLWKL [MTUS2]	4.04 ± 0.25	4.17 ± 0.22
FAPQTGARPSETFARFCKSQESAL [DNAAF3]	2.5 ± 0.45	2.76 ± 0.52
